In US20230250148A1 (published 2023):
Read-outs that look alike come from different tables or passages of the source. Each block holds one binder with its values, some of them ahead of it.

Tests used:
[1] = biological target: T1, human insulin receptor (IR) on human IM-9 cells (human, UniProt P06213 28-1382); assay: competition with biotinylated RHI on IM-9 cells, flow cytometry, 4 C
T1 construct: whole, on cells; also called human IR
Description: (§1) 40 µL of an IM-9 cell suspension (8×10⁶ cells/mL) was then added to each well by multichannel pipette, mixed again gently and incubated on ice for 30 min to allow competitive binding on the IR on IM-9 cells. Cells were then washed twice with 275µL of ice-cold FACS wash buffer (HBSS/2mM EDTA/0.1% Na-azide + 0.5% horse serum) by centrifuging the V-bottom plate at 3000 rpm for 3 min and aspirating the supernatant. Cells were then resuspended in 40µL of FACS staining medium containing 1:100 diluted Streptavidin-PE (Life Technologies) for 20 min on ice. Cells were then washed once with 275 µL of ice-cold FACS buffer and finally fixed with 3% paraformaldehyde for 10 min at room temp. Cells were then washed once with 275 µL of ice-cold FACS buffer and resuspended in 250µl of FACS buffer for analysis.
(§2) The insulin-Fc fusion proteins were manufactured in HEK293 cells according to Example 1 and purified using a Protein A column according to Example 4. Their structures were confirmed according to Example 6 by non-reducing and reducing CE-SDS, and the sequences were further identified by LC-MS with glycan removal according to Example 8. Their %homodimer content was measured by size-exclusion chromatography according to Example 10, and their insulin receptor binding affinities were measured according to Example 12.

[2] = biological target: biotinylated canine FcRn (canine, UniProt A0A8I3PFR8 25-347, biotinylated, site not stated); assay: ELISA pH 5.5, fusion protein coated, biotinylated canine FcRn titrated
Description: Insulin-Fc fusion proteins comprising Fc fragments of canine origin were diluted to 10 µg/ml in sodium bicarbonate pH 9.6 buffer and coated in duplicate on Maxisorb ELISA plate strips for 1-2 hours at RT. The strips were then washed 4 times with PBST (PBS/0.1% Tween-20) buffer and blocked with Superblock blocking reagent (ThermoFisher). Strips for FcRn binding were then washed again twice with pH 5.5 MES/NaCl/Tween (50 mM MES/150mM NaCl/0.1% Tween-20) buffer before addition of the FcRn reagent (biotinylated canine FcRn; Immunitrack). Serial dilutions (1:3X dilutions) of biotinylated FcRn reagent were prepared in pH 5.5 MES/NaCl/Tween/10%Superblock buffer at concentrations from 1000 ng/ml to 0.45 ng/mL and loaded at 100 µL/well using a multichannel pipettor onto the strips coated with the insulin-Fc fusion protein compounds. The assay plate was then incubated for 1 hour at room temperature. FcRn binding strips were washed 4 times with pH 5.5 MES/NaCl/Tween buffer and then loaded with 100 µl/well streptavidin-HRP diluted 1:10000 in pH 5.5 MES/NaCl /10%Superblock buffer. After incubating for 45 minutes, strips were washed again 4 times with pH 5.5 MES/NaCl/Tween buffer. […] The plate was read in an ELISA plate reader at a wavelength of 450 nm. […] EC50 values for each binding curve were calculated to compare between different compounds.

[3] = biological target: T1, human insulin receptor (IR) on human …; assay: competition with biotinylated RHI on IM-9 cells, flow cytometry, 4 C; remark: listed apart in the source
Description: as §1, §2

[4] = biological target: T1, human insulin receptor (IR) on human …; assay: as above; remark: listed apart in the source
Description: as §1, §2

[5] = biological target: T2, biotinylated recombinant human Fc(gamma)RI (human, UniProt P12314 16-288, biotinylated, site not stated); assay: ELISA, fusion protein coated, biotinylated rhFc(gamma)RI at 3000 ng/mL
T2 construct: Bought reagent; construct not described; also called rhFc(gamma)RI; Fc(gamma) receptor I
Description: The binding of insulin-Fc fusion proteins to the Fc(gamma)RI at pH 7.4 is conducted using an ELISA assay as follows using human Fc(gamma)RI (i.e., rhFc(gamma)RI). Insulin-Fc fusion proteins are diluted to 10 µg/mL in sodium bicarbonate buffer at pH 9.6 and coated on Maxisorp (Nunc) microtiter plates overnight at 4° C., after which the microplate strips are washed 5 times with PBST (PBS/0.05% Tween-20) buffer and blocked with Superblock blocking reagent (ThermoFisher). Serial dilutions of biotinylated rhFc(gamma)RI (recombinant human Fc(gamma)RI; R&D Systems) are prepared in PBST/10% Superblock buffer from 3000 ng/mL to 4.1 ng/mL and loaded at 100 µL/well onto the microplate strips coated with insulin-Fc fusion protein. The microtiter plate is incubated for 1 hour at room temperature after which time the microplate strips are washed 5 times with PBST and then loaded with 100 µL/well of streptavidin-HRP diluted 1:10000 in PBST/10% Superblock buffer. After incubating for 45 min, the microplate strips are washed again 5 times with PBST. TMB is added to reveal the bound Fc(gamma)RI proteins and is stopped with ELISA stop reagent (Boston Bioproducts). The plate is read in an ELISA plate reader at 450 nm, and the OD450 values (proportional to the binding of rhFc(gamma)RI to insulin-Fc protein) are plotted against log concentrations of rhFc(gamma)RI added to each well to generate binding curves using GraphPad Prism software. For groupings of compounds with somewhat similar curves, the OD450 at one of the higher concentrations, for instance at rhFc(gamma)RI concentrations of 3000 ng/mL, can be used to identify differences between coated insulin-Fc fusion protein compounds. […]
Finally, select compounds were tested for their likelihood to interact with the immune system by measuring their Fc(gamma) receptor binding activity according to the procedure of Example 15.

[6] = biological target: T3, biotinylated human FcRn (human, UniProt P55899 24-297; P61769 21-119, limits assumed, biotinylated, site not stated); assay: ELISA pH 5.5, fusion protein coated, biotinylated human FcRn titrated
T3 construct: Bought reagent (Immunitrack); composition not described; also called human FcRn receptor
Description: Insulin-Fc fusion proteins comprising Fc fragments were diluted to 10 µg/mL in sodium bicarbonate pH 9.6 buffer and coated in duplicate on Maxisorb ELISA plate strips for 1-2 hours at RT. The strips were then washed 5 times with PBST (PBS/0.1% Tween-20) buffer and blocked with Superblock blocking reagent (ThermoFisher). Strips for FcRn binding were then washed again 3 times with pH 5.5 MES/NaCl/Tween (50 mM MES/150mM NaCl/0.1% Tween-20) buffer before addition of the FcRn reagent (biotinylated human FcRn; Immunitrack). Serial dilutions (1:3X dilutions) of biotinylated FcRn reagent were prepared in pH 5.5 MES/NaCl/Tween/5%Superblock buffer at concentrations from 6000 ng/mL to 8.23 ng/mL and loaded at 100 µL/well using a multichannel pipettor onto the strips coated with the insulin-Fc fusion protein compounds. The assay plate was then incubated for 1.5 hours at room temperature. FcRn binding strips were washed 4 times with pH 5.5 MES/NaCl/Tween buffer and then loaded with 100 µl/well streptavidin-HRP diluted 1:10000 in pH 5.5 MES/NaCl /5%Superblock buffer. After incubating for 45 minutes, strips were washed again 5 times with pH 5.5 MES/NaCl/Tween buffer. […] The plate was read in an ELISA plate reader at a wavelength of 450 nm. […] EC50 values for each binding curve were calculated to compare between different compounds.

[7] = biological target: T4, biotinylated human complement component C1q (human, UniProt P02745 23-245; P02746 28-253; P02747 29-245, biotinylated, site not stated); assay: ELISA, fusion protein coated, biotinylated human C1q at 1000 ng/mL
T4 construct: also called biotinylated-C1q
Description: The binding of insulin-Fc fusion proteins to complement component C1q at pH 7.4 was conducted using an ELISA assay as follows using human complement component C1q. Insulin-Fc fusion proteins were diluted to 10 µg/mL in sodium bicarbonate buffer at pH 9.6 and coated on Maxisorp (Nunc) microtiter plates overnight at 4° C., after which the microplate strips were washed 5 times with PBST (PBS/0.05% Tween-20) buffer and blocked with Superblock blocking reagent (ThermoFisher). […] The plate absorbance was read in an ELISA plate reader at 450 nm (OD450), and the OD450 values (proportional to the binding of complement component C1q to insulin-Fc protein) were plotted against log concentrations of complement component C1q added to each well to generate binding curves using GraphPad Prism software. […] In order to further compare differences across multiple insulin-Fc fusion proteins run at different times, the human C1q assay OD450 Ratio was calculated as the OD450 of a test insulin-Fc fusion protein compound obtained at a biotinylated-C1q concentration of 1000 ng/mL, divided by the OD450 of a reference insulin-Fc fusion protein of SEQ ID NO: 76 obtained at a biotinylated-C1q concentration of 1000 ng/mL.

[8] = biological target: T1, human insulin receptor (IR) on human …; assay: competition with biotinylated RHI on IM-9 cells, flow cytometry, 4 C; remark: listed apart in the source
Description: as §1
Next, the insulin-Fc fusion protein of SEQ ID NO: 76 was evaluated for the potential for in vivo bioactivity.

[9] = biological target: T2, biotinylated recombinant human …; assay: ELISA, fusion protein coated, biotinylated rhFc(gamma)RI at 3000 ng/mL; remark: listed apart in the source
Description: The binding of insulin-Fc fusion proteins to the Fc(gamma)RI at pH 7.4 was conducted using an ELISA assay as follows using human Fc(gamma)RI (i.e., rhFc(gamma)RI). Insulin-Fc fusion proteins were diluted to 10 µg/mL in sodium bicarbonate buffer at pH 9.6 and coated on Maxisorp (Nunc) microtiter plates overnight at 4° C., after which the microplate strips were washed 5 times with PBST (PBS/0.05% Tween-20) buffer and blocked with Superblock blocking reagent (ThermoFisher). […] The plate was read in an ELISA plate reader at 450 nm, and the OD450 values (proportional to the binding of rhFc(gamma)RI to insulin-Fc protein) were plotted against log concentrations of rhFc(gamma)RI added to each well to generate binding curves using GraphPad Prism software. […] In order to compare differences across multiple insulin-Fc fusion proteins run at different times, the human Fc(gamma)RI assay OD450 Ratio was calculated as the OD450 value of a test insulin-Fc fusion protein compound obtained at a biotinylated-Fc(gamma)RI concentration of 3000 ng/mL, divided by the OD450 value of a reference insulin-Fc fusion protein of SEQ ID NO: 76 obtained at a biotinylated-Fc(gamma)RI concentration of 3000 ng/mL.

- IC50 [1]: 2340 nM
- EC50 [2]: 0.599 µg/mL
- IC50 [3]: 2340 nM
- IC50 [4]: 2340 nM
- OD450nm [5]: 0.368
- OD450nm minus assay background [5]: 0.311
- ratio to SEQ ID NO: 36 [5]: 0.84
B1: insulin-Fc fusion protein of SEQ ID NO: 26 (Fc fusion)
chain: FVNQHLCGSHLVEALELVCGERGFHYGGGGGGSGGGGGIVEQCCTSTCSLDQLENYCGGGGGQGGGGQGGGGQGGGGGDCPKCPAPEMLGGPSVFIFPPKPKDTLLIARTPEVTCVVVDLDPEDPEVQISWFVDGKQMQTAKTQPREEQFNGTYRVVSVLPIGHQDWLKGKQFTCKVNNKALPSPIERTISKARGQAHQPSVYVLPPSREELSKNTVSLTCLIKDFFPPDIDVEWQSNGQQEPESKYRTTPPQLDEDGSYFLYSKLSVDKSRWQRGDTFICAVMHEALHNHYTQESLSHSPG
modifications: native N-glycosylation site cNg-NB151

- EC50 [6]: 0.462 µg/mL
- OD450 Ratio (reference SEQ ID NO: 76) [7]: 0.309
- IC50 [8]: 1730 nM
- OD450 Ratio (reference SEQ ID NO: 76) [9]: 0.045
B2: insulin-Fc fusion protein of SEQ ID NO: 75 (Fc fusion)
chain: FVNQHLCGSHLVEALELVCGERGFHYGGGGGGSGGGGGIVEQCCTSTCSLDQLENYCGGGGGQGGGGQGGGGQGGGGGECPPCPAPPVAGPSVFLFPPKPKDTLMISRTPEVTCVVVDVSHEDPEVQFNWYVDGVEVHNAKTKPREEQFNSTFRVVSVLTVVHQDWLNGKEYKCKVSNKGLPAPIEKTISKTKGQPREPQVYTLPPSREEMTKNQVSLTCLVKGFYPSDIAVEWESNGQPENNYKTTPPMLDSDGSFFLYSKLTVDKSRWQQGNVFSCSVMHEALHNHYTQKSLSLSPG
